Measured values taken from patent publication US20170342169A1.

How the values were obtained:
[1] = target: human mesothelin on cells (SN12C, OVCAR3, SW1990 endogenous; HEK293 transfectants) (human) (UniProt Q13421); assay: FACS, SN12C cells (CA125-)
[2] = target: human mesothelin on cells (SN12C, OVCAR3, SW1990 endogenous; HEK293 transfectants) (human) (UniProt Q13421); assay: FACS, OVCAR3 cells (CA125+)
mouse 4-1BB (mouse) = mouse 4-1BB (mouse) (UniProt P20334); assay: SPR
Chain of mouse 4-1BB (mouse) (P20334 24-187): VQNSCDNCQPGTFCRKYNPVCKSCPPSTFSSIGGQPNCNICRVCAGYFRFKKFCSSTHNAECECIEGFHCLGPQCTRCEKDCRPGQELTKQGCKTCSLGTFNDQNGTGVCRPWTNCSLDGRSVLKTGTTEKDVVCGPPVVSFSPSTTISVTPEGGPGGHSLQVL

Chain of human mesothelin on cells (SN12C, OVCAR3, SW1990 endogenous; HEK293 transfectants) (human) (Q13421 other isoform, or with tags, fused parts or gaps limits assumed): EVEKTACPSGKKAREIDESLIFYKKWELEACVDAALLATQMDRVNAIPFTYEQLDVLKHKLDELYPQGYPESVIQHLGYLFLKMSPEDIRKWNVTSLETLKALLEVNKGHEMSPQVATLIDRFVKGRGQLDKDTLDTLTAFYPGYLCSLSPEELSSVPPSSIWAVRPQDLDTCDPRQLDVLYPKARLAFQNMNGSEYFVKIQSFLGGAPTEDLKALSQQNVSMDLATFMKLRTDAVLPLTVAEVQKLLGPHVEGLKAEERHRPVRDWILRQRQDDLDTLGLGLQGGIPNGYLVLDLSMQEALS

| Substance | Maximum binding (MFI) [1] | Maximum binding (MFI) [2] | Kd (mouse 4-1BB (mouse)) | koff (mouse 4-1BB (mouse)) | kon (mouse 4-1BB (mouse)) |
| --- | --- | --- | --- | --- | --- |
| HuIgG1 control (antibody) | 40 MFI | 70 MFI | – | – | – |
| 1D8 (antibody) | – | – | 3.9 nM | 0.008 s⁻¹ | 2.1e+06 M⁻¹ s⁻¹ |
